The text below walks through data of a protein production outcome set (Wang et al. 2014).

The nature of the data set: label from the status in PepcDB records.
Turning to “MNSELTFKQGLKDTMPTVFGYIGIGIAFGMIGHSEGFSVWVILLLSLIVYAGSAQFIMVSMLATHSPIMSIVLSVFLVNSRIILMSMTTASYFKNESLLKNILLGTLLTDESFALGMNKQNYTEGKLNFSWFNASNLLAYLVWALASAIGALLGNLLANPEKLGLGFAVIAMFIGLLYLQLISDKTLGLMLQLVMVGITLVLFYFGLIFLPSNLLVLFVTLIACALGVGVKRVFF”, the protein production entry is reported as “failed”. With “MNSESKLSQKANSSFTMDDFAKALENHDYQFQKGQVVYGKVFQLDPDGAYVDIGGKSSAYIPRDEASLRAVNDLAAVLPLHEELEFIIIREQDAEGQVTLSRRQLEINHIWEKLAQMKENSQPVDVKVTGVNKGGVTVDVQSLRGFIPRSHLTERDNLEALKGHTLTAGFLEVDRNNKKLVLSQRLVTRSSNFNQLEIGQLVEGKITGIKPFGVFVDLNGLSALLHIKQVSQKFIESLEKVFQPGQTIKAIVIDLDQGKGRVAISTRALENFPGEVLENFEEVMASAEARANRAANKMNEGGVGV”, the protein production result is reported as “failed”. As for “MNSGRPETMENLPALYTIFQGEVAMVTDYGAFIKIPGCRKQGLVHRTHMSSCRVDKPSEIVDVGDKVWVKLIGREMKNDRIKVSLSMKVVNQGTGKDLDPNNVIIE”, the protein production entry is “not failed”. Take “MNSIKNVPARVLSRRPGHSLEAEREQFDKTQAISISKAINTQEAPVKEKHARRIILGTHHEKGAFTFWSYAIGLPLPSSSILSWKFCHVLHKVLRDGHPNVLHDCQRYRSNIREIGDLWGHLHDRYGQLVNVYTKLLLTKISFHLKHPQFPAGLEVTDEVLEKAAGTDVNNIFQLTVEMFDYMDCELKLSESVFRQLNTAIAVSQMSSGQCRLAPLIQVIQDCSHLYHYTVKLLFKLHSCLPADTLQGHRDRFHEQFHSLRNFFRRASDMLYFKRLIQIPRLPEGPPNFLRASALAEHIKPVVVIPEEAPEDEEPENLIEISTGPPAGEPVVVADLFDQTFGPPNGSVKDDRDLQIESLKREVEMLRSELEKIKLEAQRYIAQLKSQVNALEGELEEQRKQKQKALVDNEQLRHELAQLRAAQLEGERSQGLREEAERKASATEARYNKLKEKHSELVHVHAELLRKNADTAKQLTVTQQSQEEVARVKEQLAFQVEQVKRESELKLEEKSDQLEKLKRELEAKAGELARAQEALSHTEQSKSELSSRLDTLSAEKDALSGAVRQREADLLAAQSLVRETEAALSREQQRSSQEQGELQGRLAERESQEQGLRQRLLDEQFAVLRGAAAEAAGILQDAVSKLDDPLHLRCTSSPDYLVSRAQEALDAVSTLEEGHAQYLTSLADASALVAALTRFSHLAADTIINGGATSHLAPTDPADRLIDTCRECGARALELMGQLQDQQALRHMQASLVRTPLQGILQLGQELKPKSLDVRQEELGAVVDKEMAATSAAIEDAVRRIEDMMNQARHASSGVKLEVNERILNSCTDLMKAIRLLVTTSTSLQKEIVESGRGAATQQEFYAKNSRWTEGLISASKAVGWGATQLVEAADKVVLHTGKYEELIVCSHEIAASTAQLVAASKVKANKHSPHLSRLQECSRTVNERAANVVASTKSGQEQIEDRDTMDFSGLSLIKLKKQEMETQVRVLELEKTLEAERMRLGELRKQHYVLAGASGSPGEEVAIRPSTAPRSVTTKKPPLAQKPSVAPRQDHQLDKKDGIYPAQLVNY”: the protein production entry is recorded as “not failed”. For “MNSIWKQYIDILQGVVKPALGCTEPICAAYAASVATQMLGSKPETIDVFVSDNLYKNSMGVFVPRTGRVGLAIAAATGAIGGNPDAGLEVLAKITEEEVDEAQKLIDNGCVVVQRETTDEFIYCRVIAKNAVHNAEVTISGGHTLIIEKRLDDNVIFTLDSSLPKTSTASICDGVDITISSIYDFATQAEFDDIKFILEAKELNIALAQEGLNNPYGLEVGRTYQKNIEKGLLAKSLDSDILIYTSAASDARMGGATLPAMSNYGSGNQGIAATIPVVKMADFFNADDEKLARAFIMSHLGAIYIKSHYPPLSAFCGNAVTSAAASMAMVYLAGGTFEQSCSAIQNTISDTSGMICDGAKSTCAMKVGSSAQSAMKSALLALNDHCVTKQGVIADDVEKTIKNIGRMITTGMPNIDHEIIEIMAS” the value was “failed”; for “MNSKIMYHIFPDRFHRYGEDRPGLIKWGEKPSRDSFFGGNLEGIRQKIQYIKDLRVDHIYLNPLFKSKSNHRYDVDDYYSIDELLGTDQDLKNLVSDAHASGIKIVLDMVFNHTSTDFPAFRDVIEKGRNSPYYRWYIFHRDEFTVFRGRGKRGSYPSYETFMGYGGMPKLDHRNPEVRRYCINVLKYYVQKFDVDGFRYDVAHSIYSKFFEEVFSEIGTGILHIGEAWCLPTYLVNGSAWQSYTNYFLGGSIIDFLKGSITLGEFYDRVQRMLIVNGIEKQQAMMNVLDSHDTPRILRILNGDRKKVKLAYSILYLFDGIATIYYGDEVGLDGGKDPDDRRCFPWDSMDEDMHSFFMNLGDLREKYSLGSALEHHHHHH”, “failed”. Consider “MNSLQILSFVGFTLLVAVITWWKVRKTDTGSQQGYFLAGRSLKAPVIAASLMLTNLSTEQLVGLSGQAYKSGMSVMGWEVTSAVTLIFLALIFLPRYLKRGIATIPDFLEERYDKTTRIIIDFCFLIATGVCFLPIVLYSGALALNSLFHVGESLQISHGAAIWLLVILLGLAGILYAVIGGLRAMAVADSINGIGLVIGGLMVPVFGLIAMGKGSFMQGIEQLTTVHAEKLNSIGGPTDPLPIGAAFTGLILVNTFYWCTNQGIVQRTLASKSLAEGQKGALLTAVLKMLDPLVLVLPGLIAFHLYQDLPKADMAYPTLVNNVLPVPMVGFFGAVLFGAVISTFNGFLNSASTLFSMGIYRRIINQNAEPQQLVTVGRKFGFFIAIVSVLVAPWIANAPQGLYSWMKQLNGIYNVPLVTIIIMGFFFPRIPALAAKVAMGIGIISYITINYLVKFDFHFLYVLACTFCINVVVMLVIGFIKPRATPFTFKDAFAVDMKPWKNVKIASIGILFAMIGVYAGLAEFGGYGTRWLAMISYFIAAVVIVYLIFDSWRHRHDPAVTFTPDGKDSL”, for which the protein production entry is given as “failed”. Turning to “MNSNDQPGLDLLGDPIVLTQRLVDIPSPSGQEKQIADEIEDALRNLNLPGVEVFRFNNNVLARTNRGLASRVMLAGHIDTVPIADNLPSRVEDGIMYGCGTVDMKSGLAVYLHTFATLATSTELKHDLTLIAYECEEVADHLNGLGHIRDEHPEWLAADLALLGEPTGGWIEAGCQGNLRIKVTAHGVRAHSARSWLGDNAMHKLSPIISKVAAYKAAEVNIDGLTYREGLNIVFCESGVANNVIPDLAWMNLNFRFAPNRDLNEAIEHVVETLELDGQDGIEWAVEDGAGGALPGLGQQVTSGLIDAVGREKIRAKFGWTDVSRFSAMGIPALNFGAGDPSFAHKRDEQCPVEQITDVAAILKQYLSE”, the protein production result was “not failed”. On to “MNSTISFLYQPKVQNGSIISVEALLRVPGVTNIESYVSMVTNKPLFDYTIIRKVLSDRREYHENIGYSFPVSINISIQSLESDYFINKTSKLLKNEPNVTLEITENDSYLSLERVKESMGILKSLGVKFSLDDFGKGFSDIEQVLSLDLDEIKVDGSLVNDIENNFYKFRHLKYTLDELEDISNFNIVIERVENKKQVNLIESLGKKVSYQGYFFYKPMNLFDLTIATPEPHKEEKHEPKLLLEKLIYELIKTDNDNECAQLVNDIHSVDIFNNLGSKVCDSLTITEVKKSILKKYNKIALNPNSPENLFFKSYLNCMSRLVIIRDSEGNALFNNQAHINFMNVDLVGMPLESIYEKFEQYESCIAIDKELIESKSNFLAVREVVDFDGQTKSYYTFRQKINHYGKTLIITIVYDEDDRDSFPRDALTDCFDRTILNSYYMNQFNMVAFIDMDGFKKINDNFSHKLGDDCLSKFVMYLKHELRKEDLIIRYGGDEFLIFTQWDDRHTFESRLNLIRNKVEKLFKSNNIDLSFSYGIEDLSKGMEIAINCADEKMYADKSRKLQ”, for which the protein production result is “failed”. With “MNSYPLISVIMSVYKEEREWLVSSIQSILDQTVSDFEFIIILDFPNSELLKTLKDFEKKDSRIIIYQNEKNVGLVESLNTALSFSRGKYIARMDADDISHKNRFEKQLKYITLNNLDLVGGNVNIFHSNKGIYNTTDKVQSDYFLCKLLKIGTIGIVHPTFFSKRNVYDTIGGYYHAECAEDLELLMRANLNGFKIGNIPDVILDCRYSEKSITKENAYFMFCTVKYLKSLYRSSLKSGDYKFNSNYIELYLYDENNKLAFSEKQNLMSEARHSFNEKKYISFLINLIKSILISRTVFFSIKVNVMSFLFRKVEVKIPKVLLACIKIKLQLEHHHHHH”, the protein production result is recorded as “not failed”. Consider “MNTFPWLTTIILLPIVAALFIPIIPDKDGKTVRWYSLAVGLVDFALIVYAFYSGFDLSEPGLQLVESYTWLPQIDLKWSVGADGLSMPLIILTGFITTLATMAAWPVTLKPKLFYFLMLLMYGGQIAVFAVQDILLFFLVWELELVPVYLILSIWGGKKRLYAATKFILYTAGGSLFILLAGLTLAFYGDVNTFDMSAIAAKDIPVNLQLLLYAGFLIAYGVKLPIFPLHTWLPDAHGEATAPAHMLLAGILLKMGGYALLRMNVGMLPDAHAVFAPVLVILGVVNIIYAAFTSFAQRNLKRKIAYSSISHMGFVLIGLASFTDLGMSGAMLQMISHGLIGASLFFMVGATYDRTHTLMLDEMGGIGQKMKKGFAMWTACSLASLALPGMSGFVAELMVFVGFATSDAYNLVFRTIVVVLMGVGVILTPIYLLSMLREMLYGPENEELVNHTNLVDVEPREVFIIGCLLVPIIGIGFYPKLITQIYDPTINQLVQTARRSVPSLVQQANLSPLEVTALRPPTIGF”, for which the protein production entry is given as “failed”.

Turning to “MNTIIRYASLWGLCAALTLAQTPSKTPDEIKQILNNYSHKNLKLIDPPTSSLEATPSFLSSPKETATTINQEIAKYHEKSDKAALGLYELLKGATTNLSLQAQELSVKQAMKNHTIAKAMFLPTLNASYNFKNEARDTPEYKHYNTQQLQAQVTLNVFNGFSDVNNVKEKSATYRSNVANLEYSRQSVYLQVVQQYYEYFNNLARMIALQKKLEQIKTDIKRVTKLYDKGLTTIDDLQSLKAQGNLSEYDILDMQFALEQNRLTLEYLTNLSVKNLKKTTIDAPNLQLRERQDLVSLREQISAIRYQNKQLNYYPKIDVFDSWLFWIQKPAYATGRFGNFYPGQQNTAGVTATLNIFDDIGLSLQKQSIMLGQLANEKNLAYKKLEQEKDEQLYRKSLDIARAKIESSKASLDAANLSFANIKRKYDANLVDFTTYLRGLTTRFDAEVAYNLALNNYEVQKANYIFNSGHKIDDYVH”, the protein production result is reported as “failed”. With “MNTILSTLFIVLAAWFVISRFLPVKGVQNINGKELKSIVGKQGKYFIDVRTVGEYRGNHMKGFQNIPLNDLASKTNQLDKNREVIVICQSGMRSKQAAKMLKKLGFQHVINVSGGMNGL”, the protein production entry was “failed”. Consider “MNTIVVAQLQRQFQDYIVSLYQQGFLDNQFSELRKLQDEGTPDFVAEVVSLFFDDCSKLINTMSISLERPDNVDFKQVDSGVHQLKGSSSSLCFVLSVGARRVKNVCISFKECCDVQNREGYSSNSHTNCDNDIWHRCLRCLQQVDYEYKMLKTKLQDLFNVSFKLCENLLVLLLEKQILQAGGTIPQVDIN”, for which the protein production entry is recorded as “failed”. For the sequence “MNTLNRYIGWEVIKGAAFAALVLLALLNFFTFADELRDLGEGNYGLGSIFLYLTLTSPHSLYELIPSGALIGGLVVLGNMANNHELVAMQAAGVSRGRIVWAVLRAGIVISLISVVISEYVIPPAERAAQMLKATATRQQVASQTKYGVWIRDGNVYVNVREIENQERLGDIHIFEISPDGRPALAMHAARASFDRGIWKLEDIGLTRFDPAGNAAIAEHKEQEDWSSVLSPDMLDVFIVRPENLSAQDLAKYMAYQTENAQKSLAVEQAFWGRMVNPLITLAMLLLAIPFVFNARRDVSSGQRIVIGVTIGLGFYLTNRMVSHLGLVYEVNAPLTMVTPPLVVLFAALAAFRRRP”, the protein production result was “failed”. With “MNTLRYFDFGAARPVLLLIARIAVVLIFIIFGFPKMMGFDGTVQYMASLGAPMPMLAAIIAVVMEVPAAILIVLGFFTRPLAVLFIFYTLGTAVIGHHYWDMTGDAVGPNMINFWKNVSIAGAFLLLAITGPGAISLDRR”, the protein production result is “failed”.
